Assay results: the Human Domainome abundance scans (Beltran et al. 2025)

B1: RNA-binding E3 ubiquitin-protein ligase MEX3C, residues 325 to 391; numbered along this chain, Q5U5Q3 (parent)
chain: GQTTVQVRVPYRVVGLVVGPKGATIKRIQQQTHTYIVTPSRDKEPVFEVTGMPENVDRAREEIEMHI

Variants of: B1
Experiment: abundance fitness (aPCA) (normalised: wild type 0, dead -1); higher = more abundant; growth selection in yeast, the domain comes from the species named
Settings: Homo sapiens

Abundance fitness, by site and new letter:
I36: K -0.729, P -0.736, E -1.04, N -0.21, W -0.736, G -0.586, S -0.435, T -0.899, M -0.885, V -0.471, Q -0.801, R -0.715, A -0.555, F -0.941
Q31: F -0.452, S -0.319, C -0.69, R 0.036, D -0.001, V -0.109, M 0.048, P -0.65, A -0.272, E 0.252, K 0.035, L -0.128, W -0.966, N -0.048, T -0.261, G -0.57, I -0.18
T38: L -0.268, A -0.015, M -0.271, I -0.177, H -0.587, S -0.01, W -0.384, P -0.046, K -0.333, D -0.275, R -0.403, F -0.516, G 0.005, C 0.005, N -0.347, V -0.174, Y 0.017
I28: T -0.288, W -1.2, C -0.874, G -0.883, F -0.467, H -0.751, A -0.695, R -0.419, Q -0.576, L -0.559, V -0.496, P -0.376, M -0.639, E -0.952
Y35: V 0.129, H 0.164, K 0.284, C -0.132, P -0.773, R 0.2, F -0.02, D -0.283, A -0.044, L -0.046, S 0.15, I -0.069, M -0.044, W -0.135, N 0.1, G -0.511, Q 0.206, T 0.307, E -0.041
T24: P -1.02, D -0.67, G -0.371, R -0.366, K -0.346, V -0.517, A -0.53, E -0.304, S -0.731, N 0.171, I -0.792, L -0.875, Q -0.818, H -0.28, W -0.553, Y -0.589, C -0.574, M -0.786
P39: G -0.467, V -0.476, K -0.149, Y -0.328, A -0.497, E -0.424, F -0.286, H -0.402, R -0.276, Q -0.477, I -0.57, M -0.502, C -0.221, N -0.234, T -0.409, W -0.58, D -0.383
T34: Q -1.01, F -0.969, M -0.788, D -0.503, G -0.828, Y -1.07, C -0.423, L -0.689, S -0.802, I -0.866, N -0.791, K -0.34, W -0.947, R -0.641, A -0.877, P -0.867
D42: P -1.01, Y -0.181, C -0.425, K -0.139, M -0.128, H -0.191, F -0.198, N -0.071, T -0.245, I -0.342, A -0.292, Q -0.122, S -0.332, L -0.263, R -0.408, V -0.465, G 0.099, W -0.335
K43: I -0.583, C -0.1, Q -0.059, G 0.108, F -0.431, S 0.12, D 0.131, H 0.012, M 0.125, L -0.579, P -0.565, R -0.133, N -0.093, E -0.191, T -0.05, A 0.058
Q30: K -0.016, C -0.805, R -0.126, H -0.23, W -0.566, F -0.773, V -0.536, G -0.609, T -0.183, A -0.01, S -0.435, P -0.899, E -0.022, M -0.377, D -0.053, L -0.505, Y -0.664
V37: A -0.23, P -0.724, M -0.095, N -0.426, C -0.205, Y -0.629, S -0.027, I -0.089, T 0.136, D -0.377, L -0.315, W -0.811, K 0.216, E -0.422, R 0.138, F -1, H -0.582, Q -0.094
R41: N -0.058, A 0.017, W -0.245, H -0.109, G -0.154, S -0.047, D 0.048, V -0.088, C -0.067, E -0.021, M -0.168, I -0.15, K 0.019, P 0.071, T -0.021, F -0.343, Y -0.212, L -0.21
K26: S -0.483, L -0.655, D -0.417, R -0.126, G -0.769, P -0.56, F -0.786, H -0.66, W -0.722, V -0.747, N -0.491, Y -0.944, M -0.212, Q -0.343, C -0.911, A -0.119, T -0.61
A23: W -0.553, V -0.477, R 0.063, S -0.08, T -0.012
I25: A -0.811, P -0.64, H -0.62, Y -0.502, E -0.786, C -0.58, R -0.39, T -0.75, G -0.68, F -0.905, M -0.571, K -0.754, L -0.165
H33: L -0.582, E -0.267, N 0.171, K 0.016, D 0.184, T -0.744, W -1.15, Y -0.396, G 0.081, M -0.213, P -0.845, A -0.182, Q 0.088, C -0.426, R -0.165, F -0.438
R27: D -0.656, F -0.755, E -0.512, G -0.591, S -0.465, W -0.241, Q -0.399, P -0.834, L -0.665, A -0.37, N -0.59, M -0.346, K 0.111, I -0.901, C -0.832, T -0.38, V -0.577
Q29: G -0.308, E -0.241, R -0.549, M 0.205, P -0.765, C -0.392, F -0.882, V -0.746, I -0.736, T -0.619, W -0.629, S -0.179, A 0.106, K -0.81, D -0.34
S40: H -0.352, K -0.072, T -0.081, C -0.332, G 0.03, A 0.021, M -0.016, W -0.215, F -0.349, Q -0.033, Y -0.137, N 0.032, L -0.133, E -0.029, D 0.138, V -0.229, I -0.34, P 0.08
T32: I -0.944, Q -0.669, E -0.707, P -0.654, L -0.734, C -0.578, D -0.575, W -0.916, R -0.938, Y -0.777, V -0.682, A -0.712, H -0.488, M -0.653
